# Test results as given in patent US20140087995A1 (published 2014).
# Numbered stars: 1 amine (or outer) side, 2 acyl side, 3 side chain; on linkers, the order of the positions; unused ones are H or OH. Bridge positions count the residues as written; N and C are the ends. Side chains are listed from the residue outwards. Ends that are not written are not given here. * marks the point of attachment. C20 diacid = O=C(O)CCCCCCCCCCCCCCCCCCC(=O)*; γGlu = O=C(O)[C@H](CCC(=O)[*:2])N[*:1]; AEEA = NCCOCCOCC(=O)O
# T1: rat calcitonin receptor (rat, UniProt P32214 25-516)
# T1 construct: whole, on cells; Used as membranes prepared from the transfected cells; also called rCTR; rCT
# T1 sequence (looked up): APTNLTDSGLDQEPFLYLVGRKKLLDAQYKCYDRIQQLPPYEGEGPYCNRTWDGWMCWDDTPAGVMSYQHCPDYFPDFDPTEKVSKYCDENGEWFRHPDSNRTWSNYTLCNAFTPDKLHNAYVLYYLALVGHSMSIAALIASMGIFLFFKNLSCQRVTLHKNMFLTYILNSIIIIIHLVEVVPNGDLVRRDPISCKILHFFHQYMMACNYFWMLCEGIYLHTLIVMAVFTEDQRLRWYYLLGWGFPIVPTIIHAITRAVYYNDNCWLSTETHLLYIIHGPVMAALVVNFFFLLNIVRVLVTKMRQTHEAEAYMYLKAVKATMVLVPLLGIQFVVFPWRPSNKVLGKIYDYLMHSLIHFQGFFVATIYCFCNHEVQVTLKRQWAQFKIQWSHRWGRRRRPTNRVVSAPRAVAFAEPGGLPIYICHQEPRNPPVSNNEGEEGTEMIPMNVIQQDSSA
# T2: human calcitonin receptor (human, UniProt P30988 25-474)
# T2 construct: whole, on cells; Used as membranes prepared from the transfected cells; also called hCTR; hCT
# T2 sequence (looked up): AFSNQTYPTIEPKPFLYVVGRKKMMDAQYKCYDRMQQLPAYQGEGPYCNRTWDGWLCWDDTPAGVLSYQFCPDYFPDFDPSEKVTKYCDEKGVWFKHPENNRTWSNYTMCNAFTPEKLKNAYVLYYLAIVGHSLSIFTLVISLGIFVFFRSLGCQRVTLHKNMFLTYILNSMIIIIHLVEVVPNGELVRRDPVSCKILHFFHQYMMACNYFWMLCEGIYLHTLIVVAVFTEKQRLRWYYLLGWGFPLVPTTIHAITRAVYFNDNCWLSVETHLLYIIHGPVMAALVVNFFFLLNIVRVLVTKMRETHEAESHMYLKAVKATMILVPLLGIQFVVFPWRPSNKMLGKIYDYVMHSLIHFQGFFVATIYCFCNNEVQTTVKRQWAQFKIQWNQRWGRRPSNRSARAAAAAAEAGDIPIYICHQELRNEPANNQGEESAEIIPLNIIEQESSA
# What was measured:
# rat calcitonin receptor [1] = biological target: T1, rat calcitonin receptor; assay: SPA competition with 125I-calcitonin, membranes with rat calcitonin receptor (Assay VIII)
# rat calcitonin receptor [2] = biological target: T1, rat calcitonin receptor; assay: ratio of binding IC50 at rat calcitonin receptor to IC50 at rat amylin receptor (reference)
# [3] = biological target: T2, human calcitonin receptor; assay: ratio of binding IC50 at human calcitonin receptor to IC50 at human amylin receptor (reference)
# Method in brief: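 Scintillation proximity competition binding on cell membranes at 35 ng/μL with SPA beads, in 50 mM Hepes pH 7.4, 1 mM CaCl2, 5 mM MgCl₂, 0.1% OA, 0.02% Tween20. Incubated 120 min at 25° C with shaking. IC₅₀ from one-site competition fit.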
Binder,IC50 (rat calcitonin receptor [1]),Ratio rCT/rAmylin binding (rat calcitonin receptor [2]),Ratio hCT/hAmylin binding [3]
"K([AEEA-γGlu-C20 diacid])CNTATCATQRLASFLRHSSPNFGAIPSSTPVGSNTY-NH2 (disulfide 2-7; N-terminus assumed; SMILES CC[C@H](C)[C@H](NC(=O)[C@H](C)NC(=O)CNC(=O)[C@H](Cc1ccccc1)NC(=O)[C@H](CC(N)=O)NC(=O)[C@@H]1CCCN1C(=O)[C@H](CO)NC(=O)[C@H](CO)NC(=O)[C@H](Cc1c[nH]cn1)NC(=O)[C@H](CCCNC(=N)N)NC(=O)[C@H](CC(C)C)NC(=O)[C@H](Cc1ccccc1)NC(=O)[C@H](CO)NC(=O)[C@H](C)NC(=O)[C@H](CC(C)C)NC(=O)[C@H](CCCNC(=N)N)NC(=O)[C@H](CCC(N)=O)NC(=O)[C@@H](NC(=O)[C@H](C)NC(=O)[C@@H]1CSSC[C@H](NC(=O)[C@@H](N)CCCCNC(=O)COCCOCCNC(=O)CC[C@H](NC(=O)CCCCCCCCCCCCCCCCCCC(=O)O)C(=O)O)C(=O)N[C@@H](CC(N)=O)C(=O)N[C@@H]([C@@H](C)O)C(=O)N[C@@H](C)C(=O)N[C@@H]([C@@H](C)O)C(=O)N1)[C@@H](C)O)C(=O)N1CCC[C@H]1C(=O)N[C@@H](CO)C(=O)N[C@@H](CO)C(=O)N[C@H](C(=O)N1CCC[C@H]1C(=O)N[C@H](C(=O)NCC(=O)N[C@@H](CO)C(=O)N[C@@H](CC(N)=O)C(=O)N[C@H](C(=O)N[C@@H](Cc1ccc(O)cc1)C(N)=O)[C@@H](C)O)C(C)C)[C@@H](C)O, Analogue of human amylin; disulfide and C-terminal amide as told for h-amylin; also called compound 73)",50.3 nM,178,51.7
"K([AEEA-γGlu-C20 diacid])CNTATCATQRLATFLRHSSPNFGAIPSSTPVGSNTY-NH2 (disulfide 2-7; N-terminus assumed; SMILES CC[C@H](C)[C@H](NC(=O)[C@H](C)NC(=O)CNC(=O)[C@H](Cc1ccccc1)NC(=O)[C@H](CC(N)=O)NC(=O)[C@@H]1CCCN1C(=O)[C@H](CO)NC(=O)[C@H](CO)NC(=O)[C@H](Cc1c[nH]cn1)NC(=O)[C@H](CCCNC(=N)N)NC(=O)[C@H](CC(C)C)NC(=O)[C@H](Cc1ccccc1)NC(=O)[C@@H](NC(=O)[C@H](C)NC(=O)[C@H](CC(C)C)NC(=O)[C@H](CCCNC(=N)N)NC(=O)[C@H](CCC(N)=O)NC(=O)[C@@H](NC(=O)[C@H](C)NC(=O)[C@@H]1CSSC[C@H](NC(=O)[C@@H](N)CCCCNC(=O)COCCOCCNC(=O)CC[C@H](NC(=O)CCCCCCCCCCCCCCCCCCC(=O)O)C(=O)O)C(=O)N[C@@H](CC(N)=O)C(=O)N[C@@H]([C@@H](C)O)C(=O)N[C@@H](C)C(=O)N[C@@H]([C@@H](C)O)C(=O)N1)[C@@H](C)O)[C@@H](C)O)C(=O)N1CCC[C@H]1C(=O)N[C@@H](CO)C(=O)N[C@@H](CO)C(=O)N[C@H](C(=O)N1CCC[C@H]1C(=O)N[C@H](C(=O)NCC(=O)N[C@@H](CO)C(=O)N[C@@H](CC(N)=O)C(=O)N[C@H](C(=O)N[C@@H](Cc1ccc(O)cc1)C(N)=O)[C@@H](C)O)C(C)C)[C@@H](C)O, Analogue of human amylin; disulfide and C-terminal amide as told for h-amylin; also called compound 75)",442 nM,110,91.4
"K([γGlu-C20 diacid])CNTATCATQRLARFLRHSSPNFGAIPSSTPVGSNTY-NH2 (disulfide 2-7; N-terminus assumed; SMILES CC[C@H](C)[C@H](NC(=O)[C@H](C)NC(=O)CNC(=O)[C@H](Cc1ccccc1)NC(=O)[C@H](CC(N)=O)NC(=O)[C@@H]1CCCN1C(=O)[C@H](CO)NC(=O)[C@H](CO)NC(=O)[C@H](Cc1c[nH]cn1)NC(=O)[C@H](CCCNC(=N)N)NC(=O)[C@H](CC(C)C)NC(=O)[C@H](Cc1ccccc1)NC(=O)[C@H](CCCNC(=N)N)NC(=O)[C@H](C)NC(=O)[C@H](CC(C)C)NC(=O)[C@H](CCCNC(=N)N)NC(=O)[C@H](CCC(N)=O)NC(=O)[C@@H](NC(=O)[C@H](C)NC(=O)[C@@H]1CSSC[C@H](NC(=O)[C@@H](N)CCCCNC(=O)CC[C@H](NC(=O)CCCCCCCCCCCCCCCCCCC(=O)O)C(=O)O)C(=O)N[C@@H](CC(N)=O)C(=O)N[C@@H]([C@@H](C)O)C(=O)N[C@@H](C)C(=O)N[C@@H]([C@@H](C)O)C(=O)N1)[C@@H](C)O)C(=O)N1CCC[C@H]1C(=O)N[C@@H](CO)C(=O)N[C@@H](CO)C(=O)N[C@H](C(=O)N1CCC[C@H]1C(=O)N[C@H](C(=O)NCC(=O)N[C@@H](CO)C(=O)N[C@@H](CC(N)=O)C(=O)N[C@H](C(=O)N[C@@H](Cc1ccc(O)cc1)C(N)=O)[C@@H](C)O)C(C)C)[C@@H](C)O, Analogue of human amylin; disulfide and C-terminal amide as told for h-amylin; also called compound 63)",124 nM,35.6,157
"K([γGlu-C20 diacid])CNTATCATQRLARFLRHSSPNFGAIPSSTNVGPNTY-NH2 (disulfide 2-7; N-terminus assumed; SMILES CC[C@H](C)[C@H](NC(=O)[C@H](C)NC(=O)CNC(=O)[C@H](Cc1ccccc1)NC(=O)[C@H](CC(N)=O)NC(=O)[C@@H]1CCCN1C(=O)[C@H](CO)NC(=O)[C@H](CO)NC(=O)[C@H](Cc1c[nH]cn1)NC(=O)[C@H](CCCNC(=N)N)NC(=O)[C@H](CC(C)C)NC(=O)[C@H](Cc1ccccc1)NC(=O)[C@H](CCCNC(=N)N)NC(=O)[C@H](C)NC(=O)[C@H](CC(C)C)NC(=O)[C@H](CCCNC(=N)N)NC(=O)[C@H](CCC(N)=O)NC(=O)[C@@H](NC(=O)[C@H](C)NC(=O)[C@@H]1CSSC[C@H](NC(=O)[C@@H](N)CCCCNC(=O)CC[C@H](NC(=O)CCCCCCCCCCCCCCCCCCC(=O)O)C(=O)O)C(=O)N[C@@H](CC(N)=O)C(=O)N[C@@H]([C@@H](C)O)C(=O)N[C@@H](C)C(=O)N[C@@H]([C@@H](C)O)C(=O)N1)[C@@H](C)O)C(=O)N1CCC[C@H]1C(=O)N[C@@H](CO)C(=O)N[C@@H](CO)C(=O)N[C@H](C(=O)N[C@@H](CC(N)=O)C(=O)N[C@H](C(=O)NCC(=O)N1CCC[C@H]1C(=O)N[C@@H](CC(N)=O)C(=O)N[C@H](C(=O)N[C@@H](Cc1ccc(O)cc1)C(N)=O)[C@@H](C)O)C(C)C)[C@@H](C)O, Analogue of human amylin; disulfide and C-terminal amide as told for h-amylin; also called compound 65)",108 nM,93.2,82.4
"K([γGlu-C20 diacid])CNTATCATQRLAAFLRHSSPNFGAIPSSTNVGHNTY-NH2 (disulfide 2-7; N-terminus assumed; SMILES CC[C@H](C)[C@H](NC(=O)[C@H](C)NC(=O)CNC(=O)[C@H](Cc1ccccc1)NC(=O)[C@H](CC(N)=O)NC(=O)[C@@H]1CCCN1C(=O)[C@H](CO)NC(=O)[C@H](CO)NC(=O)[C@H](Cc1c[nH]cn1)NC(=O)[C@H](CCCNC(=N)N)NC(=O)[C@H](CC(C)C)NC(=O)[C@H](Cc1ccccc1)NC(=O)[C@H](C)NC(=O)[C@H](C)NC(=O)[C@H](CC(C)C)NC(=O)[C@H](CCCNC(=N)N)NC(=O)[C@H](CCC(N)=O)NC(=O)[C@@H](NC(=O)[C@H](C)NC(=O)[C@@H]1CSSC[C@H](NC(=O)[C@@H](N)CCCCNC(=O)CC[C@H](NC(=O)CCCCCCCCCCCCCCCCCCC(=O)O)C(=O)O)C(=O)N[C@@H](CC(N)=O)C(=O)N[C@@H]([C@@H](C)O)C(=O)N[C@@H](C)C(=O)N[C@@H]([C@@H](C)O)C(=O)N1)[C@@H](C)O)C(=O)N1CCC[C@H]1C(=O)N[C@@H](CO)C(=O)N[C@@H](CO)C(=O)N[C@H](C(=O)N[C@@H](CC(N)=O)C(=O)N[C@H](C(=O)NCC(=O)N[C@@H](Cc1c[nH]cn1)C(=O)N[C@@H](CC(N)=O)C(=O)N[C@H](C(=O)N[C@@H](Cc1ccc(O)cc1)C(N)=O)[C@@H](C)O)C(C)C)[C@@H](C)O, Analogue of human amylin; disulfide and C-terminal amide as told for h-amylin; also called compound 93)",131 nM,83.2,101
